Experimental data as given in PMC7409020, “Tumor-Targeting Peptides: The Functional Screen of Glioblastoma Homing Peptides to the Target Protein FABP3 (MDGI)” (Cancers, 2020).

Molecular target: A-CooP
Assay: SPR; Biacore T100; A-CooP immobilised on a CM5 chip (FC-4) by amine coupling, scrambled control peptide on the reference flow cell (FC-3); FABP3 as analyte 0.5-32 µM; 25 °C; PBS with 0.05% Tween-20, pH 7.4; steady state affinity fit of reference-subtracted sensorgrams; mean of three experiments

recombinant N-terminal His6-tagged human FABP3 (natural protein)
Kd: 16.7 µM
